Tests used:
[1] = target: T1, plexin B1-PA (extracellular region of human plexin B1 with a PA tag at the C terminal) (human, UniProt O43157 20-1490); assay: sandwich ELISA type test: plexin B1-PA on plate, Fab supernatant, detection with Nrp1ec-AP, A405
T1 construct: extracellular domain; Soluble receptor fragment expressed in Expi293F cells; Culture supernatant in the pulldown tests, purified for the sandwich tests; also called hPlexB1; plexin B1-BA; not shown: PA tag (Wako Pure Chemical Industries)
T1 sequence (looked up): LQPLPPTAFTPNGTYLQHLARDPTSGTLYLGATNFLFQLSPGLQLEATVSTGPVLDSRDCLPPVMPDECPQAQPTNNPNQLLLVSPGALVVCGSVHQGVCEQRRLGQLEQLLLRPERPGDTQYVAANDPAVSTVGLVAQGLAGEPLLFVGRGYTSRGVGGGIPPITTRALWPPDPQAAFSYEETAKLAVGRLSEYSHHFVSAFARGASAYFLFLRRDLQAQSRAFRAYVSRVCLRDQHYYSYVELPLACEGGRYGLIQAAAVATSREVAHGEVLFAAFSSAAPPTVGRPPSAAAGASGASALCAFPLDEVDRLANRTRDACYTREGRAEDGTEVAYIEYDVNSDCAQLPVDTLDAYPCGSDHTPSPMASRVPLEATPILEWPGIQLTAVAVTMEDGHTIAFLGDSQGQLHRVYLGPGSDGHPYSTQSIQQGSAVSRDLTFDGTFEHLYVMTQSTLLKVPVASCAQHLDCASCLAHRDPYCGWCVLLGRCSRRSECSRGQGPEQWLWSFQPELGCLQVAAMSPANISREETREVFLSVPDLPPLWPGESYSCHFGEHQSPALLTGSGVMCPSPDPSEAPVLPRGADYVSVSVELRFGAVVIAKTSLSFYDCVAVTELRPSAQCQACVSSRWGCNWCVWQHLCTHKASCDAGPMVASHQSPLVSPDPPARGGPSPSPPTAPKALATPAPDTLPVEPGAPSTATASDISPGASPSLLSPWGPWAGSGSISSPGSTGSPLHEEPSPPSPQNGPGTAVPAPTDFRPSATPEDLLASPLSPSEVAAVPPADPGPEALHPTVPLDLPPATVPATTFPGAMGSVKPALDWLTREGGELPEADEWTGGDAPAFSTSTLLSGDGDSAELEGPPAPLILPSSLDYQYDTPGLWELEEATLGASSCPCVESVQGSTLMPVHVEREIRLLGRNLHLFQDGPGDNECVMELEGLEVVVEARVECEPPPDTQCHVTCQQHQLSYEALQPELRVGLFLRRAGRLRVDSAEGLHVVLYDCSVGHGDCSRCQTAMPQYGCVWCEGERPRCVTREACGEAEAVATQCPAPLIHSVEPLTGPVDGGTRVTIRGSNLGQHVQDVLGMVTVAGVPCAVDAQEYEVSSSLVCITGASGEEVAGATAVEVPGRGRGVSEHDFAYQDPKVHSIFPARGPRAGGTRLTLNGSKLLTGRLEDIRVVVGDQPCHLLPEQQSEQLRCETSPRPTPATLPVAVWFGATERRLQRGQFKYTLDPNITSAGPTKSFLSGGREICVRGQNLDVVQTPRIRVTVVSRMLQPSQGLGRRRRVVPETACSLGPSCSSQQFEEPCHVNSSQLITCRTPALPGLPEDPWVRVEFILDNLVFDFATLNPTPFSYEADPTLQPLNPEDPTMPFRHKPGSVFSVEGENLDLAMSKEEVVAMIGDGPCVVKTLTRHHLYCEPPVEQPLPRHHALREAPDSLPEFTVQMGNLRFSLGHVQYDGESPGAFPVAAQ

[2] = target: T2, Met-PA (extracellular region of a human Met receptor with a PA tag at the C terminal) (human, UniProt P08581 25-932); assay: sandwich ELISA type test: Met-PA on plate, Fab supernatant, detection with Nrp1ec-AP, A405
T2 construct: extracellular domain; Soluble receptor fragment expressed in Expi293F cells; also called second target antigen; not shown: PA tag
T2 sequence (P08581 25-932): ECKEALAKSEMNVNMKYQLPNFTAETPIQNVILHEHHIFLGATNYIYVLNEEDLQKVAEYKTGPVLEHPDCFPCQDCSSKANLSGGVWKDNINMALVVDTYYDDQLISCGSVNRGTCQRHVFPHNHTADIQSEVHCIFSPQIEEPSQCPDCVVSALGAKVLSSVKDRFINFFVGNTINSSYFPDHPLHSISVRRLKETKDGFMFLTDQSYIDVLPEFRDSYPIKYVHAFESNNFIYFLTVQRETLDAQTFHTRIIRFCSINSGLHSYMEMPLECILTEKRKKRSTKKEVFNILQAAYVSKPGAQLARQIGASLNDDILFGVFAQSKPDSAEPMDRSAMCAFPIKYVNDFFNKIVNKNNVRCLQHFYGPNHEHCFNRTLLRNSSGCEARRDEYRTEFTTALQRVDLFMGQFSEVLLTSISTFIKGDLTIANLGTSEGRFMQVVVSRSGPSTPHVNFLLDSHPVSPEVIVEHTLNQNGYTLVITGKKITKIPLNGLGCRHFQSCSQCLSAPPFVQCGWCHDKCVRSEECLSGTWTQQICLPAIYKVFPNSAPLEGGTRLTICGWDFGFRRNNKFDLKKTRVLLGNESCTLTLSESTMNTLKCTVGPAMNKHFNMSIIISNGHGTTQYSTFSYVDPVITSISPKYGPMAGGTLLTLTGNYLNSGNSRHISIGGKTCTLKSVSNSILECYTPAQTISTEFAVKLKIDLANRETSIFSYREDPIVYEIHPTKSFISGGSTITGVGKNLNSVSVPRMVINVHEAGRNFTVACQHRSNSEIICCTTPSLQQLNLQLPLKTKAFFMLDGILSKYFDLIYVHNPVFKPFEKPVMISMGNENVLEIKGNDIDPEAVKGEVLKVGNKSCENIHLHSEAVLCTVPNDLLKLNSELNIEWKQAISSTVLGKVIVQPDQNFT

B1: N1_Fab having no peptide inserted therein (Fab, V domains shown)
VH: EVQLVESGGGLVQPGGSLRLSCAASGFSFSSEPISWVRQAPGKGLEWVSSITGKNGYTYYADSVKGRFTISADTSKNTAYLQMNSLRAEDTAVYYCARWGKKVYGMDVWGQGTLVTVSS
VL: DIQMTQSPSSLSASVGDRVTITCRASQSISSYLAWYQQKPGKAPKLLIYGASSRASGVPSRFSGSGSGTDFTLTISSLQPEDFATYYCQQYMSVPITFGQGTKVEIKR
notes: Unfused control Fab, used as culture supernatant; also called Fab of human IgG1 monoclonal antibody N1 (clone name YW64.3) against neuropilin 1
[1]
  binding result: no binding
[2]
  binding result: no binding
